A protein production outcome set (Wang et al. 2014)
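Also: failed if final PepcDB status was selected cloned or expressed and not failed if soluble or beyond.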

Test: label from the status in PepcDB records
For “MKLLFVSPGWPRGRLWGELGFKFPSLSLAALAAVTPESWDVALCDENIEPLDLNSDADLVAITAMTPQAPQAYRIAAAFRARGKRVVMGGFHASNLPEEALQHVDAVVVGEGEVVWPQLLADLERGELQRIYRAATALAMEAIPVARRELFQGKRYLFTNTLQTTRGCPFDCEFCSVTAFYGRRYRKRPVDNVLAELELLRRRNSFAFFVDDNLVADRTYALSLFAGMKGMGFKWLSHAPIDFAHDREFLRAAGEAGCVGMFVGFESLNQDALAAMGKVTNTARSYLEDAQAFRDNGIGILGSFVLGCDNDTPAVFEGLLRFCEEARLEAAIFPILTPYPGTEVRRRLEAEGRIISSDWQDYDMEHVTFLPRGMSVDELQQGYDWLNRSFYSLPSMYRRIFKAHRSVQVFAPMNFGFRSAIRRKGRVA”, the protein production was “failed”.
In the case of “MKLMVNHQTHYHYSEVARNSIQYIKMIPQSSPHQLVHYWDISVPGERIMKRDAFDNLWITSSQRFDYQNLTIMAQGIVELNLQNSGCHDSVVLPHVFLQPTPATLCDAEMLNFALEIVKTKDVSSLINLSQKILERITYSPYSTNVQTTAIDAFYAAQGVCQDHAHVMIAMCRALNLPARYVSGYLYDYNSPHLASHAWAEVYVDHEWHCFDVSNQIFVPKTHIYVAIGRDYFDVAPIRGIRENGGIEEMISTVQVLAC”, the protein production is reported as “failed”.
With “MKLNIKDVVLNYNIIGEGEPIIILHGYSVDHTIMFGCMENLFSDESRYKRIYVDLPGMGKSTSSDSIKTSDNMLDIILEFIMKVTKGENFLLVGESYGGYLSRGVVYKIREKVNGLFLICPAIIPDFNKRTVPEHVILAYDEKLMSKLNKEEAEEFSSMSVVQNEKIYLRFKEEVMSGIKLGNQDFLERLQREGYGFSFDVDKLPQKFDKPTLMLLGKQDASVGYKDAWNILDNYPRATFAVLDMAGHNLQIEQEDIFNLLGKEWISRTYREKDY” the protein production was “failed”.
In the case of “MKLSAAGVEKIKPTDKRQEIPDSLCVGLYLIVQPTGKKGWQVRYRHGGVHRRMSLGAFPVLSLAGARERARQTLAAASAGTDPAAEVKAAKAPKLDGDRDKIKTLIGQFDKRHLSKLKSGAVVRRELERHVVSAWGERDVHQIGKRDVIDLLDGIADSGRVVTANRVRAYLAKFFGWCVERDILATSPAAGVKPAGKETSRARVLTDDEIRWFWTACEAEGFPWGPFGKVLLLTGQRLNEVAQMTDSEIRGDLWHLTADRTKNGRAHDVPLTGAVRAALDEVERVTDEEGRVRFIFTTTGRTPVSGFFKARAVLAEAMVGIAQKERGEPVEIPRWTFHDLRRTAATGMARLGIPVRVTEAVLNHVSGTGGGIVAVYQRHDYADEKRQALEAWARFVLSLVEGEADNVVRLQHG”, the protein production is reported as “failed”.
For “MKLSILKNSMNSGKAVLFIVTGIIGLLIAIGTMLLFSFYPTEQNVSQSILYITFALWTVGWVLGPIIAGGDGILRSEYFVLLPFTSYKLARALLVVAFIGLGPIVSLIAFIGLFIYAARVSLSATIVAIPAIILQLIFVVLLSKVVVSIIGETLKSRIGMEVGAMLFGFIIAFLNVGWYVLPTINKMTLSDSTLLYMFPSSWAILAVEYAIQSNWLLVLVFLIVLTILCGLLFFIWATLLMKSTETKKIEGRITTNKHRKALRFFSETKIGATITKELKSWRRDPQRGRFLRMGIWIGVFYGILVTSANISYLMPWAGIIMIVFTSMFSCNIYGFDGSALWLTLTTPDAERIDVRGRQFAWLIAVGPIAILATIIFTISSGLTFIYPWVFTVIPALLGGAAGLIMLFSVFNVVPITDPHRRGRGSVISGDDMNASKMFITTWLMMVMVMATTIPALLVVWLGTLLHVQFLQWLGVLTGICTGMFFAWWFGRIAYLKIEKSGSELLFEMKNGMKTLRDDNKKKGNRKAVELPKKKLAIVVLLVFMGIFFLIHQSVVPLIFEIFSIDDKVRLFFLPRYVPHIVRIPIIILFAILGIASLYKAILIKKKHGKEHRFIKDEM”, the protein production was “failed”.
For “MKLSSLLNSENSEKNHLQIQQSGQRRIDRMAQSGVGKSSLWSLAEVGWTAGPVTFLAAQGGYYLGFGTWLPNENLIFFVGYTVLMGLIAVLVKFIYKATKGQELDDAKEQLLLVIGSLPDFILSVRDLTLSRMEPESRRYESARILLQKSDLGPQWLTLAVNSIIDSPVIAQAVANIEIYWRAGMYSRIHDINQELSTEISAALASLEPDRPRLARLLEQRLQGKKNTLRSGVEREPFFIERIFSAIEEDNEDIMGLSDVEEVLTLAFELLSGRRIPMLVVNCVGSSQLTIATKKLEKERSKYRIARARGYSQLLALANFLSDSNLLDYSTVAERLPSSDLLQICLETIDRLCQNICDDIGCVQKRENVDMRALKLNHSVLIKALELYQQAYRSSAMVLNEHADFLKDINSWQRINLKYADANTKVSVTGKQGLHIIERQIQLTDADKITVVKKIAHHFDSQSILSKGLRNRTQQSNWQVSNQHVRAAKQLAIDLALALNPCVFISLPEVQGAIYSSNAVDLGSFEPGLSTTTKVGWGESVAKEVKKDMVKASEQIAQAIHRYYGICLGDKELDFMHQTYGMNKEHVIDYYLENEQGEQSSNVFEPRSPLMIPEVKFAWRKTLTLYRQHI”, the protein production was “failed”.
With “MKLSVCTITFRHHLLCFSEIVEWTQRNGFDGVELWGAHARGLMRTHPEYDADWLRSYGLSVPMLSDYLPTDGDITDTRHRAIELCRIAQHWSARKIRTFAGNRPSAQLSREQRRALAGRIGEIAGIVHDHGIRLLVETHPNTLADNVDSTLGLLADANHPGLGINFDALHVWEGGDDPVLARRTLADFIGHYHLKNVRSRDELGVFAPENVYSAAGSRDGMVPLFDGAMDYEGFLASLADETDAEASLEWFGHDCFETLARDRLAIFARSISTRGRRGSAGTQQARLAESRAAGRAASSKGPSCI” the protein production was “failed”.
In the case of “MKLTIIRLQHFSDQDRIDLGKIWPSQDLSTLTLDENHRLYAAHFNERLLGAVRVTLRGVEGELSDLCVREVTRRRGVGQYLVEETLRDNPAINSWRVADHGVEDRGVMAAFMQALGFSAQQNGWEKH”, the protein production is reported as “failed”.
For “MKLVICAGPATTGKTAVLRHAIGKLIGRGFKPAFLKIDVQYAEEDEQFAREFAIPTRKTYSGDLCPDHCTVMVLGEALEWAGRQGADVLLVETAGLCLRCSPYVDGGLGVIVLEATSGMNLPLKVGPMLSLADVAVVTKIDRISQAEREVFRARIQDVAPGVRIREANALHGIGIDPLVDQIQATPDVDATLSLRGNPPVGTCTICVGKKEIGWKAHFGVVRSLENQTFYRGELEHHHHHH”, the protein production was “failed”.
For “MKLYQHIETLWDYMQLKQDLKPADCLFVMCSNDVRVAEHAAALYHQKLAPLIVFSGGEGRFTDGLFEKSEAETFADIARLAGVPSDAILVETRSTNSGENVRFTEQLLKEKGIQCESIILVQKPFMERRAIATFEKQWQSPYSQVQVSSTAHPFFEYINEDMPLMMVLEALMEDFSRVKSYPEKGFQTKQDIPNQVDSSYQVLLERFGFDLVLEHHHHHH”, the protein production was “failed”.
For “MKMIETSLASASAALRDRVDEILAAATREDGCAPLSESFLNGLRRADDGHVHSCVMDSHDQVVGVAARDGDSAEVVVDPAFRRQGYGSFLIRHVVSQGVKNVWAHGDGAGAKAVAKALQLEQTRQLLVMAVEGDRLVESAQLQVPSGFRVLALNEAYESIPDIEQQWLRVNNEAFEWHPEQGGWDSARLAQARDTQWFRESDVLFLIDTAKRTVAGFHWTKRHGDLAEGADGEVYVVGLGSAYRRRGLGDLLIRMGLHHLEYEHARRVILYVEGDNESARRAYDALGFHVVESHVTYSPQSSS”, the protein production was “failed”.
In the case of “MKMIQFWFDFASTYSYPAAMQIRQLKDEYRFSLHPFLLGGIFQKQGLNDSPFNAYPVKGQYMWRDLERICQKLDLKFHRPVLFPQNGLLAARIACQYASAPWIFDFICSVYQANFVQNLDIGQPETISQILQNMQLDCNDIIMTSTTDTAKQTLKQNGMIAESLHIFGAPSFVVENELFWGQDRLQDAIDWSQR”, the protein production is reported as “failed”.
In the case of “MKMRKLVKDFGDDYTLIQDSQEVKAILEYIGSEEEPHALFVKVGDGDYEEVWGIDSFVPYNFLEAYRLK”, the protein production is reported as “not failed”.
With “MKMTVVGFWGGFPEAGEATSGYLFEHDGFRLLVDCGSGVLAQLQKYITPSDIDAVVLSHYHHDHVADIGVLQYARLITSATKGQLPELPIYGHTFDENGFHSLTHEPHTKGIPYNPEETLQIGPFSISFLKTVHPVTCFAMRITAGNDIVVYSADSSYIPEFIPFTKDADLFICECNMYAHQEAAKAGHMNSTEVASIAKDANVKELLLTHLPHTGNPADLVTEAKQIFSGHITLAHSGYVWNS” the protein production was “not failed”.
For “MKNFLETIEDMILIINREGRLLYANTAVPKKLGYPHEELMSMHILTITSAGKMAEGEKILAELFAGKKESLPLSLEKKEGTSIPAKARIWQGKWHNEPCLFAIIKDLSKEERASSPPFLEPDEIHTGISGAAWCEKPDFASDISCELKDEEPSKPRVLIVDDQLFNLKLLESALKEDYIVMTADNGIEALELATGKSQPDIILLDIIMPVMDGYEVCIRLREMPETRDIPVIFLSALKNEKNEEYALQLGVVDYITKPFSLPIIKGRLRNHVEQKKYRDRQKENSYIDELTQIANRRKFNETVTIEWNRARRNGNSLSVLMIDVDCFKKYNDFYGHLEGDKCLYKIAQTLKSNVKRSSDLVARWGGEEFACVLTDTDRIGAMLVGERLRRAVVKLNIPSEISDVDRVVTASIGVATALPAVDNSLEELLHKADMALYKAKKTGRNCVCTP”, the protein production was “failed”.
In the case of “MKNHLITVLVCCLFFIGCKDDKANSNQYDPSQPVVFTDFSPKEGGMRTRLYIEGSNFGNDPTKIHITIGGEKTKTIGADGKKIYCMVPSKAFDGIINVRVDGPDGKPIAEHTFEEEFKYTPATIVGTLLRKVDEDNNSAFQEGSFDEGASIPSNDCMVFDPKYKDGDNRLLFSSNHSDGLHLIDLTERTVKRLFPRTGYSTMYSFTFSADGDTLLFTDDHGQDNTTRANIYYSLRRENFRRIRPYNYGRTAYSLVYMDDGTIFYTTWWEGKVYKMIRNGAIPNIDENAEVAFSLSQISAVGGSHTILFRHPSNKFMYMLSDNFGAVFRADYDPVAKTFGNPSIIAGNMNDKSFKEGTGGSARFNKPQFGVFVKNEKYGEGIGPDNDQYDFYFCDRENHCIWKLDPHGVASLAAGRSNENADGKIWGYVDGNPLHEARFNQPAGLAYDPDTDMFYIGDIDNKGIRYMTTE”, the protein production is reported as “failed”.
In the case of “MKNIIPQALLTMPILSTGLQAQEKQPTPNLVFIMADQYRGDAIGCIGKEPVKTPHLDKLASEGINFTNAISSYPVSSPARGMLMTGMYPIGSKVTGNCNSETAPYGVELSQNARCWSDVLKDQGYNMGYIGKWHLDAPYKPYVDTYNNRGKVAWNEWCPPERRHGFDHWIAYGTYDYHLKPMYWNTTAPRDSFYYVNQWGPEYEASKAIEYINGQKDQKQPFALVVSMNPPHTGYELVPDRYKEIYKDLDVEALCKGRPDIPAKGTEMGDYFRNNIRNYYACITGVDENVGRIIEALKQNNLFDNTIVVFTSDHGICMGAHENAGKDIFYEESMRIPMILSWPDQIKPRKSDPLMIAFADLYPTLLSMMGFSKEIPETVQTFDLSNEVLTGKNKKDLVQPYYFVKFDNHATGYRGLRTDRYTYAVHATDGKIDNVILFDRTNDPHEMNNIASQQLKLTHTFNRQLKTWLEKTNDPFAQYIKLKLEHHHHHH”, the protein production is reported as “not failed”.
For “MKNIVVIGAGNIGSAIAWMLAATGDYRITVADRSADQLANVPAHERVDTEIVDIADRPALEALLKGKFAVLSAAPFHLTAGIAEAAVAVGTHYLDLTEDVESTRKVKALAETAESALIPQCGLAPGFISIVAADLAARFDKLDSVRMRVGALPQYPSNALNYNLTWSTDGLINEYIEPCEAIVEGRLTAVPALEEREEFSLDGVTYEAFNTSGGLGTLCATLEGKVRTMNYRTIRYPGHVAIMKALLNDLNLRNRRDVLKDLFENALPGTMQDVVIVFVTVCGTRNGRFLQETYANKVYAGPVSGRMMSAIQITTAAGICTVLDLLAEGSLPQKGFVRQEEVALPKFLENRFGRYYGAHEPLARVG”, the protein production was “failed”.
With “MKNKIILGCLAAAACEILFGLSFIFTKSITAQASGLALISWRFVTAFFFVNLYLLTKRQKVVINGRNIKPLIRIAILNPIIYFICETIGIRMTTASESGAFLACIPVVALIMSSLILKEWPSRWQVVGVATTLIGIIIAVFAAGGSTNFSLVGYFILGLAVVSYALYCVDVEKASQFTSFEITYFMLASGCLTFGLFALSHSFLAGNLKELLTLPWSNPKFAITILYQGLGCSVIGYILSNFAIATIGVNRTASFIGISTIISILAAVVFLGEPFSQLQILAGILVVLGVYVANKN” the protein production was “failed”.
